We go through two molecules from paper PMC10621992 (PLOS Pathogens, 2023).

The target in this test is T1, GST-BLK, prokaryotically expressed and purified (human, UniProt P51451 1-505).
T1 construct: also called purified recombinant BLK; not shown: GST, N-terminal, kept
Nature of the test: pull-down. As to conditions: both partners purified.

T1 sequence (P51451 whole entry): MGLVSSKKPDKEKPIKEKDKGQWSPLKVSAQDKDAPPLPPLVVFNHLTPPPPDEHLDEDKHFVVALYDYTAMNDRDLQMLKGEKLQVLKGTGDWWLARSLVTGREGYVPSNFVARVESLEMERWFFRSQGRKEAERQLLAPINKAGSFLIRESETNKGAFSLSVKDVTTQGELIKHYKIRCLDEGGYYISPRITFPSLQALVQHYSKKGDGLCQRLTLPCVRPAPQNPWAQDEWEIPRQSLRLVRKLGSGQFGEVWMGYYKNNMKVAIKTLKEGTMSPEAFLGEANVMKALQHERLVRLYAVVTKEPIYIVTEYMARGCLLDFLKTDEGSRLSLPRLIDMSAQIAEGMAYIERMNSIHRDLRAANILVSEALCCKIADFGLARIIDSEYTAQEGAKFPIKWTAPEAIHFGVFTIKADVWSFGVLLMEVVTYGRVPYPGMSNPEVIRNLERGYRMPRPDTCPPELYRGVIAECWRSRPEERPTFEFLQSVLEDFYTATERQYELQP

B1: IRF3-Flag, purified from HEK293 cells (natural protein, human, UniProt Q14653 1-427, looked up)
chain: MGTPKPRILPWLVSQLDLGQLEGVAWVNKSRTRFRIPWKHGLRQDAQQEDFGIFQAWAEATGAYVPGRDKPDLPTWKRNFRSALNRKEGLRLAEDRSKDPHDPHKIYEFVNSGVGDFSQPDTSPDTNGGGSTSDTQEDILDELLGNMVLAPLPDPGPPSLAVAPEPCPQPLRSPSLDNPTPFPNLGPSENPLKRLLVPGEEWEFEVTAFYRGRQVFQQTISCPEGLRLVGSEVGDRTLPGWPVTLPDPGMSLTDRGVMSYVRHVLSCLGGGLALWRAGQWLWAQRLGHCHTYWAVSEELLPNSGHGPDGEVPKDKEGGVFDLGPFIVDLITFTEGSGRSPRYALWFCVGESWPQDQPWTKRLVMVKVVPTCLRALVEMARVGGASSLENTVDLHISNSHPLSLTSDQYKAYLQDLVEGMDFQGPGES
On to B1, for which the binding result is on record as “binds”.

B2: His-IRF3, prokaryotically expressed and purified (natural protein, human, UniProt Q14653 1-427, looked up)
chain: B1 chain
notes: not shown: His, N-terminal, kept
With B2, the binding result is recorded as “binds”.
